Results: the supplement of paper PMC10598134
± gives the standard deviation.

Assay: collision cross section of modified peptide (TIMS, N2, iRT-aligned); higher = larger / more extended gas-phase ion
Summary of the method: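 Collision cross section was derived from the Mason-Schamp equation. Each value averages 1–3 technical replicates of the most abundant feature per charge state, measured on a timsTOF Pro/HT in dda-PASEF mode (nitrogen, ~2.4 mbar) after a 120-min nanoflow C18 gradient at 60 °C. Synthetic peptide pools (~100 fmol/µL in 2% acetonitrile/0.1% formic acid, iRT standard spiked 1:40) were identified with MaxQuant, and 1/K0 was calibrated with three reference ions and aligned run-wise to the median iRT peptide deviation.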

[1] = charge state: 2, modification: HexNAc (ST)
[2] = charge state: 3, modification: HexNAc (ST)
[3] = charge state: 2, modification: Formyl
[4] = charge state: 3, modification: Formyl
[5] = charge state: 2, modification: Butyryl
[6] = charge state: 3, modification: Butyryl
[7] = charge state: 2, modification: Crotonyl
[8] = charge state: 2, modification: GlyGly (K)
[9] = charge state: 2, modification: Phospho (Y)
[10] = charge state: 2, modification: hydroxyisobutyryl
[11] = charge state: 3, modification: hydroxyisobutyryl
[12] = charge state: 2, modification: Trimethyl (K)
[13] = charge state: 3, modification: Trimethyl (K)
[14] = charge state: 2, modification: Acetyl (K)
[15] = charge state: 3, modification: Acetyl (K)
[16] = charge state: 2, modification: Methyl (K)
[17] = charge state: 3, modification: Methyl (K)
[18] = charge state: 3, modification: Dimethyl (K)
[19] = charge state: 2, modification: Malonyl
[20] = charge state: 2, modification: Dimethyl (K)
[21] = charge state: 3, modification: Citrullination (R)
[22] = charge state: 3, modification: GlyGly (K)
[23] = charge state: 2, modification: Succinyl
[24] = charge state: 3, modification: Succinyl
[25] = charge state: 2, modification: Hydroxyproline
[26] = charge state: 3, modification: Hydroxyproline
[27] = charge state: 2, modification: Glutarylation
[28] = charge state: 3, modification: Glutarylation

Sequence: LGHYATQLQK [_LGHYAT(HexNAc (ST))QLQK_]
- collision cross section [1]: 388.93 ± 0.68 Å²
- collision cross section [2]: 446.62 ± 0.17 Å²

Sequence: VSPASSVDSNIPSSQGYKK [_VSPASSVDSNIPSSQGYK(Formyl)K_]
- collision cross section [3]: 457.96 ± 0.14 Å²
- collision cross section [4]: 550.3 ± 3 Å²

Sequence: ANEKTESSSAQQVAVSR [_ANEK(Butyryl)TESSSAQQVAVSR_]
- collision cross section [5]: 441.41 ± 1.7 Å²
- collision cross section [6]: 534.65 ± 3.5 Å²

Sequence: DKALPLEAEVAPVK [_DK(Crotonyl)ALPLEAEVAPVK_]
- collision cross section [7]: 411.34 ± 0.34 Å²

Sequence: ASAISIKLGSSK [_ASAISIK(GlyGly (K))LGSSK_]
- collision cross section [8]: 390.99 ± 1 Å²

Sequence: TYVQDILR [_TY(Phospho (Y))VQDILR_]
- collision cross section [9]: 359.66 ± 0.65 Å²

Sequence: ITGKNQVTATK [_ITGK(Butyryl)NQVTATK_]
- collision cross section [5]: 370.52 ± 0.71 Å²

Sequence: FDDTNPEKEEAK [_FDDTNPEK(hydroxyisobutyryl)EEAK_]
- collision cross section [10]: 401.52 ± 0.54 Å²
- collision cross section [11]: 443.87 ± 2.2 Å²

Sequence: LLEEEDSKLK [_LLEEEDSK(Trimethyl (K))LK_]
- collision cross section [12]: 388.34 ± 1.1 Å²
- collision cross section [13]: 441.46 ± 2.4 Å²

Sequence: LEEVTGKLQVAR [_LEEVTGK(Formyl)LQVAR_]
- collision cross section [3]: 388.92 ± 0.55 Å²

Sequence: DSSPTTNSKLSALQR [_DSSPTTNSK(Acetyl (K))LSALQR_]
- collision cross section [14]: 430.6 ± 0.81 Å²
- collision cross section [15]: 495.74 ± 2.2 Å²

Sequence: PGGEGPQCEKTTDVK [_PGGEGPQCEK(Formyl)TTDVK_]
- collision cross section [3]: 413.32 Å²

Sequence: KYEEIDNAPEER [_K(Methyl (K))YEEIDNAPEER_]
- collision cross section [16]: 398.83 ± 1.1 Å²
- collision cross section [17]: 466.31 ± 3.7 Å²

Sequence: PSVSTKLISK [_PSVSTK(Trimethyl (K))LISK_]
- collision cross section [12]: 364.51 ± 0.61 Å²
- collision cross section [13]: 427.1 ± 2.4 Å²

Sequence: TFGKAAGPSLSHTSGGTQSK [_TFGK(Dimethyl (K))AAGPSLSHTSGGTQSK_]
- collision cross section [18]: 547.87 ± 1.3 Å²

Sequence: ASDTSSETVFGKR [_ASDTSSETVFGK(Butyryl)R_]
- collision cross section [5]: 403.53 ± 0.74 Å²
- collision cross section [6]: 479.86 ± 1.9 Å²

Sequence: LDHLAEKFR [_LDHLAEK(hydroxyisobutyryl)FR_]
- collision cross section [10]: 375.94 ± 0.8 Å²
- collision cross section [11]: 444.1 ± 2 Å²

Sequence: GVQYLNEIK [_GVQY(Phospho (Y))LNEIK_]
- collision cross section [9]: 357.38 ± 0.065 Å²

Sequence: GFCFITYTDEEPVKK [_GFCFITYTDEEPVK(Malonyl)K_]
- collision cross section [19]: 452.98 ± 0.65 Å²

Sequence: DSSPTTNSKLSALQR [_DSSPTTNSK(Dimethyl (K))LSALQR_]
- collision cross section [20]: 423.14 ± 1.1 Å²
- collision cross section [18]: 472.53 ± 1.6 Å²

Sequence: DYSAPVNFISAGLKK [_DYSAPVNFISAGLK(Dimethyl (K))K_]
- collision cross section [20]: 457.54 ± 1.7 Å²
- collision cross section [18]: 517.49 ± 1.2 Å²

Sequence: DAEAAEATAEGALKAEK [_DAEAAEATAEGALK(Propionyl)AEK_]
- collision cross section (charge state: 2, modification: Propionyl): 451.16 ± 23 Å²

Sequence: YIDNQVVSTKGER [_YIDNQVVST(HexNAc (ST))KGER_]
- collision cross section [1]: 428.63 ± 0.14 Å²
- collision cross section [2]: 510.94 ± 0.18 Å²

Sequence: HSPTLPEPGGLRLELPLSR [_HSPTLPEPGGLR(Citrullination (R))LELPLSR_]
- collision cross section [21]: 513.82 ± 1.9 Å²

Sequence: VNVEAPDVNLEGLGGKLK [_VNVEAPDVNLEGLGGK(Crotonyl)LK_]
- collision cross section [7]: 459.79 Å²

Sequence: ASNAAVKLAESK [_ASNAAVK(Formyl)LAESK_]
- collision cross section [3]: 365.07 ± 0.39 Å²

Sequence: VNIGQGSHPQKVK [_VNIGQGSHPQK(Formyl)VK_]
- collision cross section [3]: 425.2 ± 1.4 Å²
- collision cross section [4]: 472.74 ± 2.1 Å²

Sequence: ILDLKTGTVK [_ILDLK(Dimethyl (K))TGTVK_]
- collision cross section [20]: 355.49 ± 0.51 Å²

Sequence: KFGVLSDNFK [_K(GlyGly (K))FGVLSDNFK_]
- collision cross section [8]: 380.5 ± 0.25 Å²
- collision cross section [22]: 435.06 ± 2 Å²

Sequence: VDVEVPDVSLEGPEGKLK [_VDVEVPDVSLEGPEGK(Malonyl)LK_]
- collision cross section [19]: 466.73 ± 0.63 Å²
- collision cross section (charge state: 3, modification: Malonyl): 496.84 Å²

Sequence: GAEKTEVAEPR [_GAEK(Succinyl)TEVAEPR_]
- collision cross section [23]: 372.49 ± 0.4 Å²

Sequence: VDIDVPDVNIEGPDAKLK [_VDIDVPDVNIEGPDAK(Succinyl)LK_]
- collision cross section [23]: 479.51 ± 1 Å²
- collision cross section [24]: 508.07 ± 2 Å²

Sequence: FLQEFYQDDELGKK [_FLQEFYQDDELGK(Methyl (K))K_]
- collision cross section [16]: 445.9 ± 2.4 Å²
- collision cross section [17]: 499.81 ± 3 Å²

Sequence: VNVEAPDVNLEGLGGKLK [_VNVEAPDVNLEGLGGK(Dimethyl (K))LK_]
- collision cross section [20]: 464.65 Å²
- collision cross section [18]: 539.12 ± 0.61 Å²

Sequence: IVFSGNLFQHQEDSKK [_IVFSGNLFQHQEDSK(Succinyl)K_]
- collision cross section [23]: 493.41 ± 1 Å²
- collision cross section [24]: 524.55 ± 2 Å²

Sequence: DFDTALKHYDK [_DFDTALK(Crotonyl)HYDK_]
- collision cross section [7]: 412.02 ± 2.4 Å²
- collision cross section (charge state: 3, modification: Crotonyl): 466.35 ± 1.9 Å²

Sequence: INNFSADIKDSK [_INNFSADIK(GlyGly (K))DSK_]
- collision cross section [8]: 406.34 ± 0.36 Å²
- collision cross section [22]: 465 ± 2.2 Å²

Sequence: DVNAAIAAIKTK [_DVNAAIAAIK(Butyryl)TK_]
- collision cross section [5]: 406.92 ± 0.23 Å²
- collision cross section [6]: 469.41 Å²

Sequence: GLPGLAGDHGEFGEK [_GLP(Hydroxyproline)GLAGDHGEFGEK_]
- collision cross section [25]: 432.14 ± 0.34 Å²
- collision cross section [26]: 497.67 ± 1.7 Å²

Sequence: SNEEGSEEKGPEVR [_SNEEGSEEK(Gluratylation)GPEVR_]
- collision cross section [27]: 407.15 ± 0.96 Å²
- collision cross section [28]: 470.21 Å²

Sequence: IQQELQTAKK [_IQQELQTAK(Butyryl)K_]
- collision cross section [5]: 385.32 ± 2.2 Å²
- collision cross section [6]: 441.3 Å²

Sequence: ITLSKHQNVQLPR [_ITLSK(GlyGly (K))HQNVQLPR_]
- collision cross section [8]: 441.27 Å²
- collision cross section [22]: 493.46 ± 2 Å²

Sequence: PGPKGEAGPTGPQGEPGVR [_P(Hydroxyproline)GPKGEAGPTGPQGEPGVR_]
- collision cross section [25]: 432.55 ± 0.34 Å²
- collision cross section [26]: 487.03 ± 3.2 Å²

Sequence: IPQEKCILQTDVK [_IPQEK(Gluratylation)CILQTDVK_]
- collision cross section [27]: 437.23 ± 0.96 Å²

Sequence: GADFLVTEVENGGSLGSKK [_GADFLVTEVENGGSLGSK(Dimethyl (K))K_]
- collision cross section [18]: 539.44 Å²

Sequence: HTLLRAPAPELLPANVAGR [_HTLLR(Methyl (R))APAPELLPANVAGR_]
- collision cross section (charge state: 3, modification: Methyl (R)): 530.63 ± 1.2 Å²

Sequence: YEQEHAAIQDKLFQVAK [_YEQEHAAIQDK(Gluratylation)LFQVAK_]
- collision cross section [28]: 519.4 ± 1.2 Å²

Sequence: FLQEFYQDDELGKK [_FLQEFYQDDELGK(Succinyl)K_]
- collision cross section [23]: 450.32 ± 0.96 Å²

Sequence: ITASLCDLKSR [_ITASLCDLK(Malonyl)SR_]
- collision cross section [19]: 382.56 Å²

Sequence: PASGAGAGAGAGKR [_PASGAGAGAGAGK(Dimethyl (K))R_]
- collision cross section [20]: 385.92 ± 1.6 Å²
- collision cross section [18]: 457.59 ± 1.6 Å²

Sequence: DTGEKLTVAENEAETK [_DTGEK(Succinyl)LTVAENEAETK_]
- collision cross section [23]: 445.72 ± 1.1 Å²
- collision cross section [24]: 515.74 ± 2.2 Å²

Sequence: LEEVTGKLQVAR [_LEEVTGK(Dimethyl (K))LQVAR_]
- collision cross section [20]: 394.61 ± 0.25 Å²
- collision cross section [18]: 471.08 ± 2.1 Å²

Sequence: ALASIDSKLNQAK [_ALASIDSK(Malonyl)LNQAK_]
- collision cross section [19]: 399.65 ± 0.028 Å²

Sequence: TLQKQSVVYGGK [_TLQK(Crotonyl)QSVVYGGK_]
- collision cross section [7]: 396.64 ± 0.8 Å²

Sequence: GTISAPGKVVTAAAQAK [_GTISAPGK(Butyryl)VVTAAAQAK_]
- collision cross section [5]: 447.93 ± 0.25 Å²
- collision cross section [6]: 519.35 ± 2.9 Å²

Sequence: GDYDLNAVR [_GDY(Phospho (Y))DLNAVR_]
- collision cross section [9]: 348.87 ± 0.066 Å²

Sequence: GGFQNRGGGSGGGGNYR [_GGFQNR(Citrullination (R))GGGSGGGGNYR_]
- collision cross section (charge state: 2, modification: Citrullination (R)): 403.21 ± 0.81 Å²
- collision cross section [21]: 503.84 Å²

Sequence: DYSSGFGGKYGVQADR [_DYSSGFGGK(Malonyl)YGVQADR_]
- collision cross section [19]: 435.88 ± 0.59 Å²

Sequence: GAEKTEVAEPR [_GAEK(Formyl)TEVAEPR_]
- collision cross section [3]: 371.26 ± 0.89 Å²

Sequence: SGKFTQQDIDEAK [_SGK(Malonyl)FTQQDIDEAK_]
- collision cross section [19]: 410.91 ± 0.58 Å²

Sequence: FSAYIKNSNPALNDNLEK [_FSAYIK(Dimethyl (K))NSNPALNDNLEK_]
- collision cross section [18]: 510.58 ± 2.9 Å²

Sequence: FDDTNPEKEEAK [_FDDTNPEK(Butyryl)EEAK_]
- collision cross section [5]: 399.47 ± 0.85 Å²
- collision cross section [6]: 440.77 ± 2 Å²

Sequence: LQAAYAGDKADDIQK [_LQAAYAGDK(Acetyl (K))ADDIQK_]
- collision cross section [14]: 429.91 ± 2.1 Å²
- collision cross section [15]: 488.96 ± 0.48 Å²

Sequence: TPNLYIYSKK [_TPNLYIYSK(Gluratylation)K_]
- collision cross section [27]: 398.57 ± 0.6 Å²
- collision cross section [28]: 451.21 ± 1.7 Å²

Sequence: SLFFGGKGAPLQR [_SLFFGGK(Methyl (K))GAPLQR_]
- collision cross section [16]: 405.87 ± 0.92 Å²
- collision cross section [17]: 448.66 ± 4 Å²

Sequence: GAEKTEVAEPR [_GAEK(Gluratylation)TEVAEPR_]
- collision cross section [27]: 362.79 ± 0.71 Å²
